Experimental data: article PMC4158700
Blank lines part the entries; values can stand above or below the substance they belong to.

Legend:
[1] = molecular target: recombinant factor XI zymogen with Arg184 replaced with Gly (fXI-Gly184) (human); assay: non-reducing SDS-PAGE
[2] = molecular target: factor XIa with Ile183, Arg184 and Asp185 replaced with alanine (fXIa-Ala183-185) (human) (UniProt P03951); assay: numerical fitting of full progress curves of fIX cleavage
[3] = molecular target: factor XIa with Arg184 replaced with Gly (fXIa-Gly184) (human) (UniProt P03951); assay: as above
[4] = molecular target: recombinant wild type factor XIa (fXIaWT) (human) (UniProt P03951); assay: inhibition of chromogenic substrate
[5] = molecular target: factor XIa with Arg184 replaced with Gly (fXIa-Gly184) (human) (UniProt P03951); assay: inhibition of chromogenic substrate
[6] = molecular target: recombinant wild type factor XI zymogen (fXIWT) (human); assay: non-reducing SDS-PAGE
[7] = molecular target: factor XIa with Ile183, Arg184 and Asp185 replaced with alanine (fXIa-Ala183-185) (human) (UniProt P03951)
[8] = molecular target: factor XIa with Arg184 replaced with Gly (fXIa-Gly184) (human) (UniProt P03951)
[9] = molecular target: plasma fXIa with the active site irreversibly blocked by FPR-CMK (UniProt P03951); assay: SPR

Substance: recombinant factor XI zymogen with Arg184 replaced with Gly (fXI-Gly184) (natural protein)
stoichiometry N [1]: 2

Substance: recombinant wild type factor XI zymogen (fXIWT) (natural protein)
stoichiometry N [6]: 2

Substance: recombinant wild type factor IX (fIXWT) (from UniProt P00740 47-461) (natural protein)
Kd [9]: 0.35 µM

Results, then the substance that gave them:

Ki [2]: 0.29 µM
Ki [3]: 0.5 µM
Ki [4]: 0.09 µM
Ki [5]: 0.19 µM
Substance: factor IXaβ (fIXaβ), fIX cleaved at Arg145-Ala146 and Arg180-Val181 (enzyme)

Km2 for cleavage after Arg180 (KinTek fit of progress curves) [7]: 3 µM
Km2 for cleavage after Arg180 (KinTek fit of progress curves) [8]: 0.2 µM
Ki1 (k-3/k3, fIXα released after the cleavage at Arg145) [2]: 6 µM
Ki1 (k-3/k3, fIXα released after the cleavage at Arg145) [3]: 0.4 µM
Substance: factor IXα (fIXα), fIX cleaved at the Arg145-Ala146 bond (natural protein)
